Measured values as given in patent US6323185, “Anti-viral guanosine-rich oligonucleotides and method of treating HIV” (The United States of America as represented by the …).

Assays:
CD4 = CD4 (UniProt P01730 P01730:26-396); assay: competition; ID50, oligo with immobilized CD4; conditions: tags: immobilized, gp120 capture ELISA kit
[1] = target: T1, gp120 envelope glycoprotein (HIV-1, UniProt P04578 P04578:33-511); assay: competition; ID50, gp120/CD4 ELISA; PD oligos did not inhibit V3 Mab binding; conditions: tags: gp120 capture ELISA kit
[2] = target: T1, gp120 envelope glycoprotein; assay: competition; ID50, inhibition of gp120 binding to CD4, oligo preincubated with gp120; conditions: tags: gp120 capture ELISA kit
[3] = target: T2, HIV-1 reverse transcriptase (HIV-1 (BH10), UniProt P03366;P03366 P03366:600-1159,P03366:600-1039); assay: inhibition; gapped duplex DNA template; duplicate 10.0 uM; conditions: intramolecular G4 (G-octet)
[4] = target: T2, HIV-1 reverse transcriptase; assay: inhibition; poly(rA).p(dT)12-18 template; duplicate 4.2 uM; conditions: intramolecular G4 (G-octet)
[5] = target: T2, HIV-1 reverse transcriptase; assay: inhibition; primed ribosomal RNA template; duplicate 0.36 uM; conditions: intramolecular G4 (G-octet)
[6] = target: HIV-1 integrase wild-type (IN1-288) (HIV-1, UniProt P12497 P12497:1148-1435); assay: inhibition; 3'-processing; strand transfer 0.046 uM; Table D-1 79 nM / 49 nM; FIG. 30 55 nM; Mn; conditions: intramolecular G4 (G-octet)
[7] = target: HIV-1 integrase wild-type (IN1-288) (HIV-1, UniProt P12497 P12497:1148-1435); assay: UV crosslinking, about 39 kDa complex; not competed by excess T30177 added after preincubation; conditions: label: 5'-32P

Binder: GTGGTGGGTGGGTGGGTGGTGGGTGGTGGTTGTGGGTGGGTGGTG (ssDNA, phosphodiester) [I100-07]
- IC50 (CD4): 4.25 µM
- IC50 [1]: 800 nM

Binder: GTTGGGGGTTGTTGGTGGGGTGGTGG (ssDNA, phosphodiester) [I100-00]
- IC50 (CD4): 18 µM
- IC50 [2]: 3.5 µM

Binder: GTGGTGGGTGGGTGGGT (ssDNA, PS at first and last internucleoside linkages, 3'-OH) [T30177 (AR177, Zintevir)]
- IC50 [3]: 8 µM
- IC50 [4]: 11 µM
- IC50 [5]: 1200 nM
- IC50 [6]: 92 nM

B1: HIV-1 U5 LTR 21-mer duplex (AE118/AE117) (dsDNA)
DNA 1: GTGTGGAAAATCTCTAGCAGT
DNA 2: ACTGCTAGAGATTTTCCACAC
- binding result [7]: binds
